# Results: publication PMC11387410
# Legend:
# [1] = target: LgBiT-BOK-TMD (transmembrane domain of BOK as NanoBiT fusion) (UniProt Q9UMX3); assay: split reporter (BiFC, NanoBiT); NanoBiT split luciferase in living HEK293FT cells; LgBiT-TMD and SmBiT-TMD plasmids transfected 1:1, 24 h; cells in Opti-MEM, 5 uM coelenterazine-h, luminescence 30 min after substrate; absolute RLU (Fig. 1C) or normalized to mTurquoise2 fluorescence and set relative to BAX-TMD/BAX-TMD = 1 (Fig. 1F, 6C)
# [2] = target: LgBiT-BOK-TMD (transmembrane domain of BOK as NanoBiT fusion) (UniProt Q9UMX3); assay: split reporter (BiFC, NanoBiT); NanoBiT split luciferase in living MCF-7 cells; transfected 24 h; luminescence relative to the positive control BAX-TMD/BAX-TMD
# [3] = target: BAX-TMD (transmembrane domain of BAX) as NanoBiT fusion (UniProt Q07812); assay: split reporter (BiFC, NanoBiT); NanoBiT split luciferase in living HEK293FT cells; LgBiT-TMD and SmBiT-TMD plasmids transfected 1:1, 24 h; cells in Opti-MEM, 5 uM coelenterazine-h, luminescence 30 min after substrate; absolute RLU (Fig. 1C) or normalized to mTurquoise2 fluorescence and set relative to BAX-TMD/BAX-TMD = 1 (Fig. 1F, 6C)
# UniProt Q9UMX3, sequence (Q9UMX3 whole entry, the tested form may be a part): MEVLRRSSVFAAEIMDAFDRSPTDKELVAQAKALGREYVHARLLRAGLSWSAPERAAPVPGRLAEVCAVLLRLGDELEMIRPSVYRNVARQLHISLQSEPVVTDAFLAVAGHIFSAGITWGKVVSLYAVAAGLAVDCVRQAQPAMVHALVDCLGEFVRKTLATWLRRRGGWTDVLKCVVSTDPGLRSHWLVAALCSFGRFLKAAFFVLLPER
relative normalized luminescence (BAX-TMD/BAX-TMD = 1) (relative to the positive control) [1],Substance,other results
0.21,SmBiT-BCL-2-TMD L223A V226A (from UniProt P10415 1-239) (domain or fragment),–
0.13,SmBiT-BCL-2-TMD L223A V226A I230A (from UniProt P10415 1-239) (domain or fragment),–
0.47,SmBiT-BCL-2-TMD (transmembrane domain of BCL-2 as NanoBiT fusion) (from UniProt P10415 1-239) (domain or fragment),normalized luminescence as percent of the positive control (BAX-TMD/BAX-TMD) (% of the positive control) [2]: 30; normalized luminescence as percent of the positive control (BAX-/BAX-TMD) (% of the positive control) [1]: 46
0.21,SmBiT-BCL-2-TMD I230A (from UniProt P10415 1-239) (domain or fragment),–
0.21,SmBiT-BCL-2-TMD V226A I230A (from UniProt P10415 1-239) (domain or fragment),–
–,BAX-TMD (transmembrane domain of BAX) as NanoBiT fusion (from UniProt Q07812 1-192) (domain or fragment),luminescence [3]: 16600 RLU
